Test results from the supplement of paper PMC10126150.
± gives the standard deviation of the averaged measurements.

test system: ATP; assay: switch fluorescence ratio, 500 uM ATP over buffer (Cy3 cluster intensity, sum of 5 cycles each) (fold (ratio)); higher = stronger signal-on switching upon ATP binding; sequences stand for … in TCGTCGGCAGCGTCAGATGTGTATAAGAGACAGTTTTTTTTTTTTTTTTTTTTTTTTT…TC; conditions: aptamer strand: ATP DNA aptamer (quencher-CACCTGGGGGAGTATTGCGGAGGAAGG + anchor), 100 nM annealed; ATP concentration: 500 uM
Summary of the method: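 Five buffer/ATP imaging cycles were run on Cy3-labelled switching-strand clusters on a modified Illumina MiSeq flow-cell, with NaOH stripping and re-annealing between cycles. In each cycle, clusters annealed to 100 nM quencher-labelled ATP aptamer were imaged in selection buffer, then after 15 min with 500 uM ATP at 22 °C. Per cluster, the fluorescence ratio is summed target-cycle over summed buffer-cycle Cy3 intensity, averaged per switch-domain sequence. Only clusters within 100-1000 RFU were kept.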
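Further: ATP exposure 15 min at 22 °C before imaging.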

| Sequence | switch fluorescence ratio |
| --- | --- |
| CTGAGGGGGG | 0.985 ± 0.019 |
| AAATACCGCA | 1.48 ± 0.17 |
| GAGTTGGGTT | 1.01 ± 0.034 |
| GCAAAAAGGT | 0.996 ± 0.029 |
| TGAGGTGCGT | 0.995 ± 0.033 |
| TAAGTTATAT | 0.985 ± 0.015 |
| AACCACAGGA | 1.057 ± 0.0019 |
| ACGAGGTTTT | 1.03 ± 0.042 |
| CCATTAGTAT | 1.057 ± 0.0076 |
| GTTCTTGGGA | 1.03 ± 0.077 |
| GTTGATTTTC | 1.017 ± 0.0079 |
| TTGCGCCGC | 1.138 ± 0.0037 |
| TTTTTTCATT | 1.02 ± 0.052 |
| ATGTGTAAAC | 1.01 ± 0.038 |
| ATCCGCGCGT | 1 ± 0.014 |
| CGTAAATTTA | 0.975 ± 0.018 |
| TATTCAATTT | 1 ± 0.021 |
| AAGGCGCGGC | 0.9694 ± 0.0088 |
| TTGGTAGATT | 0.984 ± 0.047 |
| TTTACAGTC | 1.01 ± 0.037 |
| TTGGGGTGCC | 1.01 ± 0.018 |
| GAAGCAACCG | 1.384 ± 0.01 |
| GATCTTGTTT | 0.976 ± 0.018 |
| ATATAATAGG | 0.9778 ± 0.0022 |
| AGACCATCGT | 1.01 ± 0.032 |

| Sequence | switch fluorescence ratio |
| --- | --- |
| ATATTATCAG | 0.986 ± 0.014 |
| GGTCATTTGT | 1 ± 0.041 |
| TACGTTTGGG | 0.981 ± 0.031 |
| CGTGTCTTAA | 0.974 ± 0.021 |
| TTGGGGACGG | 1 ± 0.038 |
| CCATTTTGCG | 1 ± 0.011 |
| GGGGCTTCTA | 0.957 ± 0.018 |
| GGGAGTTTTG | 1 ± 0.018 |
| AGCCCATACG | 1.2 ± 0.039 |
| TGAAGTATGA | 1.03 ± 0.045 |
| GGGGGGGCAT | 1.02 ± 0.031 |
| CATTTCTGAG | 1.008 ± 0.0061 |
| CAGGAGGCGG | 1.02 ± 0.037 |
| CCCGGTCGGC | 0.983 ± 0.0038 |
| TGGGTTGGCA | 0.987 ± 0.029 |
| CCGGCGTGGC | 1.36 ± 0.082 |
| TTAATGGCGG | 0.995 ± 0.02 |
| GGAGTTGTTA | 0.985 ± 0.013 |
| TAGTTGAGCT | 0.9997 ± 0.0061 |
| CTTTCGAGAG | 1 ± 0.025 |
| ATTGTGGAGC | 1.04 ± 0.061 |
| TTGGGAGGAT | 1.12 ± 0.2 |
| AAATGGGGTC | 0.998 ± 0.023 |
| AAGTAACGGT | 1.02 ± 0.047 |
| GAATTGAGAA | 0.972 ± 0.035 |

| Sequence | switch fluorescence ratio |
| --- | --- |
| AAACCAGTG | 1.175 ± 0.0088 |
| TAGTATTGTA | 1 ± 0.039 |
| ACTGAGGCCG | 1.04 ± 0.16 |
| AGTGCAAGTG | 0.972 ± 0.011 |
| AGGTGGTGGG | 1.01 ± 0.014 |
| AAAGAAGGGA | 0.981 ± 0.015 |
| CAGTAGGCGC | 1.01 ± 0.011 |
| CGTGCATATC | 2.51 ± 0.17 |
| CAGGATGCCC | 0.9871 ± 0.0066 |
| GCTAGTAAGT | 0.9819 ± 0.0063 |
| TAAACCGGTT | 0.984 ± 0.027 |
| CCTCGTAGGT | 1.07 ± 0.024 |
| AGGGGGGATG | 0.992 ± 0.022 |
| TGCAAGGGCG | 0.981 ± 0.021 |
| AAATAGACCG | 1 ± 0.0091 |
| TAAAAAGCGC | 1.03 ± 0.03 |
| TTCGATAGCA | 1.06 ± 0.058 |
| TGTGTCTATA | 0.97698 ± 0.00069 |
| TTATAAGTTA | 0.9814 ± 0.0043 |
| TCTGAAATAA | 1.08 ± 0.048 |
| TGTGGGTCAT | 0.9762 ± 0.0021 |
| CCTGGCGTCG | 1.005 ± 0.0083 |
| TTAGGGGGAC | 1 ± 0.041 |
| ATGTTGTGGT | 0.987 ± 0.031 |
| TGGTGTAAT | 1 ± 0.03 |

| Sequence | switch fluorescence ratio |
| --- | --- |
| TTTATCCGGT | 1.01 ± 0.042 |
| TTTATGAACT | 1.02 ± 0.042 |
| GAACGATGTT | 0.9787 ± 0.0032 |
| GGGGCAAGGG | 1.28 ± 0.28 |
| ATCCGAGGGG | 1.03 ± 0.05 |
| ATATGTTTG | 0.973 ± 0.047 |
| TAGTTTTGAT | 0.963 ± 0.029 |
| TGCCGGAAGA | 1.02 ± 0.029 |
| TTTTTGTTGT | 1.01 ± 0.052 |
| GCATAGCCTG | 0.98 ± 0.034 |
| GGGGATAGGC | 1.01 ± 0.023 |
| AACCGTTTTT | 1.05 ± 0.063 |
| AAGCAGGGAT | 0.999 ± 0.033 |
| TACATGGGTA | 0.9583 ± 0.0072 |
| TCTGGTTGTA | 0.995 ± 0.051 |
| CAAAGAGTGG | 1.0063 ± 0.00092 |
| TGGGCGGGGC | 0.998 ± 0.018 |
| CTGAGTATGT | 0.988 ± 0.015 |
| AAAAATAGGG | 1.03 ± 0.04 |
| AAAGGGAAAT | 0.975 ± 0.037 |
| ATGATGAATA | 0.949 ± 0.017 |
| CATTTAATGG | 0.997 ± 0.028 |
| GCATAGTGGT | 1.008 ± 0.01 |
| GAGGTTAGCT | 0.976 ± 0.046 |
| GCCTTAACGG | 1.01 ± 0.021 |

| Sequence | switch fluorescence ratio |
| --- | --- |
| TCATTTATGT | 0.9665 ± 0.0014 |
| GGTTTGAAAT | 1.04 ± 0.051 |
| TGGAATTGTG | 1.05 ± 0.058 |
| GCAATTGGGT | 1.08 ± 0.012 |
| TTTCTGAGCT | 1.08 ± 0.068 |
| GCGGCCTCTT | 0.993 ± 0.013 |
| TTTGTTATTG | 1.3 ± 0.44 |
| TTATTAGTAG | 1.002 ± 0.0049 |
| ACTCGGGTAA | 1 ± 0.017 |
| ATTGGACTAG | 0.989 ± 0.07 |
| TTAGATATGG | 1.02 ± 0.026 |
| CCGTGTGTCA | 1.03 ± 0.029 |
| ATATTCTACT | 1.025 ± 3.1e-05 |
| CAAGGAGGGA | 1.01 ± 0.049 |
| GAATTAAATG | 1.037 ± 0.0019 |
| TAGAAGGGGG | 0.965 ± 0.016 |
| GTGATAGGGG | 0.994 ± 0.053 |
| TGCAATGGGC | 1.21 ± 0.086 |
| TGGAAGGGAG | 0.9738 ± 0.0083 |
| CATCCTTTTA | 1.054 ± 0.0037 |
| AGGGACGAGT | 1.07 ± 0.11 |
| CACGTATGTT | 1.09 ± 0.021 |
| AAAGTGGTCT | 1 ± 0.015 |
| GGCTACGGAA | 2.32 ± 0.022 |
| ACCGGGCCCT | 1.008 ± 0.0093 |

| Sequence | switch fluorescence ratio |
| --- | --- |
| GTCATAGTTA | 0.983 ± 0.017 |
| ATTTGAGGGC | 1.01 ± 0.033 |
| ATAAAGGGGA | 0.984 ± 0.038 |
| TCCAAGGGCA | 1.01 ± 0.015 |
| TGACCGTTTT | 0.999 ± 0.025 |
| ATGAAGCAGG | 1.15 ± 0.058 |
| GGCAATAATA | 1.09 ± 0.035 |
| CTACCAGGGA | 1.149 ± 0.0019 |
| TTTGAGGTGT | 1.03 ± 0.012 |
| CGATAGGGGG | 1.01 ± 0.022 |
| TTTTGGAGGA | 1.02 ± 0.019 |
| AACTGTTCTT | 1.01 ± 0.011 |
| AGAAGAAGGC | 0.988 ± 0.022 |
| TTAACGAACG | 1.15 ± 0.083 |
| GTGGGGTTAT | 1 ± 0.013 |
| TAAGAAATGG | 1.02 ± 0.079 |
| AGTATTTTTT | 0.995 ± 0.01 |
| TTTTAGGTGA | 1.07 ± 0.025 |
| AGTGATATTT | 1.01 ± 0.042 |
| GTGATTGTTT | 1.009 ± 0.0091 |
| TACATCATGG | 1.04 ± 0.019 |
| CCATTTTTGC | 1 ± 0.022 |
| GGTATATGTC | 0.994 ± 0.05 |
| GTGATGAACG | 1.01 ± 0.092 |
| CATAGGCCGT | 1.03 ± 0.047 |

| Sequence | switch fluorescence ratio |
| --- | --- |
| GTGGAGAAAT | 1.04 ± 0.047 |
| ATCCTCGGCC | 1.52 ± 0.039 |
| CGGGTTGGGA | 1.007 ± 0.0042 |
| TTCGTTTAAT | 0.9989 ± 0.0017 |
| ATTGAGGGGA | 0.994 ± 0.032 |
| ATGATGGGGG | 0.984 ± 0.027 |
| TGGCGAAGTA | 1.01 ± 0.013 |
| TTTTGAGTTC | 1.035 ± 0.0057 |
| TCAGTAATAA | 1.345 ± 0.013 |
| CTGTGGCTCG | 0.9986 ± 0.0057 |
| TTCGGAGAAT | 1.16 ± 0.23 |
| CTGCCCGGCG | 1.03 ± 0.027 |
| GGAATGGTTT | 0.987 ± 0.064 |
| TGGCGGGGCG | 1.02 ± 0.038 |
| GTCGTCGGAG | 1.03 ± 0.019 |
| GAGATGGCAT | 0.987 ± 0.04 |
| TTGGGAAGGG | 1 ± 0.032 |
| ATGGTGGGAG | 0.992 ± 0.0061 |
| GAATATACTG | 1.05 ± 0.029 |
| TACCATTAGT | 1.041 ± 0.0085 |
| AATTTTAGGA | 0.98 ± 0.028 |
| ACTGAGTCAT | 1.01 ± 0.034 |
| AAACGCAAAG | 1.27 ± 0.3 |
| GCGTTATAAG | 1.01 ± 0.049 |
| TAGGCCAGTA | 1.024 ± 0.0091 |

| Sequence | switch fluorescence ratio |
| --- | --- |
| GGGAGCACTA | 1.09 ± 0.017 |
| TGACGGATGC | 1.197 ± 0.01 |
| TTAGTGATCT | 0.998 ± 0.015 |
| TCTTCTGGGA | 1.026 ± 0.0038 |
| GGGGTTGAGG | 0.993 ± 0.023 |
| CATAGGGCAG | 1.03 ± 0.012 |
| GGTCACGTAT | 1.05 ± 0.014 |
| TCGTAAAGAG | 1.022 ± 0.0069 |
| GATGAGGATG | 0.987 ± 0.014 |
| CAGGGAAGGT | 1.01 ± 0.033 |
| TCTAGCCCTG | 1.06 ± 0.073 |
| GACTGTCGGC | 1.02 ± 0.024 |
| GCTGTGGGCA | 0.977 ± 0.02 |
| GGTTCAGGTG | 3.38 ± 0.34 |
| GGGGTACGGC | 1.03 ± 0.041 |
| GCCCATAGGA | 0.978 ± 0.094 |
| AAGCCTTTGC | 1.052 ± 0.0041 |
| CATCATTATA | 0.9866 ± 0.0079 |
| TTGAATTAAC | 1.03 ± 0.06 |
| AAAGGTATTC | 1 ± 0.02 |
| CTGTGTGGCC | 0.968 ± 0.073 |
| TTAAAGGTTA | 0.989 ± 0.013 |
| ATTGTAGTTT | 1 ± 0.066 |
| CAGTAGGGAG | 0.987 ± 0.022 |
| CGTGATCCCC | 1.17 ± 0.057 |
